Results reported in the supplement of paper PMC7125110.
± gives the standard error. Fewer inactive variants are shown than the library holds.

B1: glmS ribozyme (parent)
chain: AUAAAAGCGCCAGAACUACAGAAAUGUAGUUGACGAGGAGGAGGUUUAUCGAAUUUUCGGCGGAUGCCUCCAAA

How the values were obtained:
Conditions in all cases: with glucosamine-6-phosphate
[1] = variants of: B1; experiment: self-cleavage kobs at 40 uM GlcN6P; higher = faster cleavage; RNA array
Procedure, shortened: (§1)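 Glucosamine-6-phosphate in HEPES/KCl/Mg(OAc)2 buffer, at 40 μM to 10 mM, was flowed over barcoded ribozyme variants transcribed in situ by E. coli RNA polymerase on sequenced MiSeq chips. Tracking was through a hybridised Cy3 probe at 37 °C. kobs, kcat and KM came from exponential decay fits and weighted Michaelis–Menten fits of normalised per-tile medians.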

[2] = variants of: B1; experiment: self-cleavage kobs at 640 uM GlcN6P; higher = faster cleavage; RNA array
Procedure, shortened: as §1

[3] = variants of: B1; experiment: self-cleavage kobs at 2500 uM GlcN6P; higher = faster cleavage; RNA array
Procedure, shortened: as §1

[4] = variants of: B1; experiment: self-cleavage kobs at 10000 uM GlcN6P; higher = faster cleavage; RNA array
Procedure, shortened: as §1

[5] = variants of: B1; experiment: self-cleavage kobs at 160 uM GlcN6P; higher = faster cleavage; RNA array
Procedure, shortened: as §1

Row | Variant | self-cleavage kobs at 40 uM GlcN6P [1] [s⁻¹] | self-cleavage kobs at 640 uM GlcN6P [2] [s⁻¹] | self-cleavage kobs at 2500 uM GlcN6P [3] [s⁻¹] | self-cleavage kobs at 10000 uM GlcN6P [4] [s⁻¹] | self-cleavage kobs at 160 uM GlcN6P [5] [s⁻¹]
1 | G35A U45C | < 1e-05 | < 1e-05 | < 1e-05 | < 1e-05 | 
2 | G7C U55A | < 1e-05 | < 1e-05 | < 1e-05 |  | < 1e-05
3 | G7C U55G | < 1e-05 |  |  | < 1e-05 | 
4 | G13C U57C | < 1e-05 | < 1e-05 |  |  | < 1e-05
5 | C11G U69G C71U | 4.35e-05 ± 2.1e-05 |  |  |  | 
6 | G9A A14C G37C G38U U49C U69A | < 1e-05 |  |  |  | 
7 | A33G U47A | < 1e-05 |  |  | < 1e-05 | 
8 | G37U A39G | < 1e-05 |  | < 1e-05 |  | 
9 | U57G C61U | < 1e-05 |  |  |  | 
10 | C11A A48U | < 1e-05 | < 1e-05 | < 1e-05 |  | < 1e-05
11 | A15U G59C | < 1e-05 | < 1e-05 | < 1e-05 | < 1e-05 | < 1e-05
12 | C10A A15U C16U C34U | < 1e-05 |  |  |  | 
13 | A48U C50G C67U | 0.000126 ± 4.4e-05 |  |  |  | 
14 | A15U A52U C70A | < 1e-05 |  |  |  | 
15 | C34U G41A C68A | < 1e-05 |  |  | < 1e-05 | 
16 | A39U U56A | 0.000199 ± 3.1e-05 |  | 0.00215 ± 0.00066 | 0.00963 ± 0.00089 | 0.000238 ± 8.2e-05
17 | A14U A33U C34G G35C U69A | 3.35e-05 ± 1e-05 |  |  | 7.09e-05 ± 1.3e-05 | 
18 | G40U G59U U69C C71U | < 1e-05 |  | < 1e-05 |  | 
19 | C11A G37C A39G G41A U47G | < 1e-05 |  |  | < 1e-05 | 
20 | A6C C11U A33C A36G U47G G59A | < 1e-05 | < 1e-05 |  |  | 
21 | A12C G40A C58U | < 1e-05 |  |  |  | < 1e-05
22 | G7A G13U | < 1e-05 | < 1e-05 |  |  | < 1e-05
23 | A6C G63A | < 1e-05 | < 1e-05 |  |  | < 1e-05
24 | A48C A52G | < 1e-05 | < 1e-05 |  |  | < 1e-05
25 | C8U A39C G41A A42C C58G A64G G66A | < 1e-05 |  |  | < 1e-05 | 

Row | Variant | self-cleavage kobs at 40 uM GlcN6P [1] [s⁻¹] | self-cleavage kobs at 640 uM GlcN6P [2] [s⁻¹] | self-cleavage kobs at 2500 uM GlcN6P [3] [s⁻¹] | self-cleavage kobs at 10000 uM GlcN6P [4] [s⁻¹] | self-cleavage kobs at 160 uM GlcN6P [5] [s⁻¹]
26 | G37C G41U U54G | < 1e-05 |  |  |  | 
27 | C58G G62U C68A | 4.88e-05 ± 1.8e-05 |  |  |  | 
28 | C34A G59U | < 1e-05 | < 1e-05 | < 1e-05 | < 1e-05 | < 1e-05
29 | A12U C67A | 0.000743 ± 7.6e-05 | 0.00261 ± 0.00048 | 0.0101 ± 0.0038 |  | 0.000983 ± 0.00027
30 | C10A G40U | < 1e-05 | < 1e-05 |  | < 1e-05 | < 1e-05
31 | A33U C67G | < 1e-05 | < 1e-05 |  |  | < 1e-05
32 | G43U G63C | < 1e-05 | < 1e-05 | < 1e-05 |  | < 1e-05
33 | A1U U2G A3G C8G A12U G63C C68A | < 1e-05 |  | < 1e-05 | < 1e-05 | 
34 | G32U C34G | < 1e-05 | < 1e-05 |  | < 1e-05 | < 1e-05
35 | U47A U57G C58U C70U | < 1e-05 |  |  |  | 
36 | G62A C71A | < 1e-05 |  |  | < 1e-05 | 
37 | A14U G38U G63U | < 1e-05 |  |  | < 1e-05 | 
38 | C8A A36U | < 1e-05 | < 1e-05 | < 1e-05 | < 1e-05 | < 1e-05
39 | C34G G43C | < 1e-05 | < 1e-05 | < 1e-05 |  | < 1e-05
40 | A33G U65G | < 1e-05 | < 1e-05 | < 1e-05 | < 1e-05 | < 1e-05
41 | C11G U31C C34G U46A | < 1e-05 |  |  | < 1e-05 | 
42 | G41C G44U G66U | < 1e-05 |  | < 1e-05 | < 1e-05 | 
43 | A12U U55A | 0.00252 ± 0.00039 | 0.0231 ± 0.0089 |  | 0.0587 ± 0.02 | 0.00433 ± 0.0018
44 | G37A G51C | < 1e-05 | < 1e-05 | < 1e-05 | < 1e-05 | < 1e-05
45 | G7C G41U | < 1e-05 |  | < 1e-05 | < 1e-05 | < 1e-05
46 | G44C C71G | < 1e-05 | < 1e-05 | < 1e-05 | < 1e-05 | < 1e-05
47 | G13C A39U G59U | < 1e-05 |  |  |  | 
48 | U45G C58U | < 1e-05 |  |  |  | < 1e-05
49 | G7U G9U | < 1e-05 | < 1e-05 | < 1e-05 | < 1e-05 | < 1e-05
50 | A36C U65A | < 1e-05 | < 1e-05 | < 1e-05 |  | 

Row | Variant | self-cleavage kobs at 40 uM GlcN6P [1] [s⁻¹] | self-cleavage kobs at 640 uM GlcN6P [2] [s⁻¹] | self-cleavage kobs at 2500 uM GlcN6P [3] [s⁻¹] | self-cleavage kobs at 10000 uM GlcN6P [4] [s⁻¹] | self-cleavage kobs at 160 uM GlcN6P [5] [s⁻¹]
51 | A15C A36G | < 1e-05 | < 1e-05 | < 1e-05 | < 1e-05 | < 1e-05
52 | A28U | 0.000787 ± 0.00025 |  | 0.0144 ± 0.0048 | 0.0176 ± 0.0065 | 
53 | G43C G44U C58U | < 1e-05 |  | < 1e-05 |  | 
54 | C11A C61A C67A | 0.000153 ± 4.5e-05 |  |  | 7.62e-05 ± 2.5e-05 | 
55 | G41C C58A | < 1e-05 |  |  | < 1e-05 | < 1e-05
56 | A15G G29U U54C | 2.83e-05 ± 1.3e-05 | 0.000321 ± 0.0001 | 0.000796 ± 0.00016 |  | 
57 | C61G U65C G66A | < 1e-05 |  |  | < 1e-05 | 
58 | A53U U54A C68U | 0.00036 ± 9.6e-05 |  |  | 0.013 ± 0.0042 | 
59 | A36U C61A C67U | 5.22e-05 ± 2.3e-05 |  |  |  | 
60 | U56A C70U C71U | 5.46e-05 ± 1.5e-05 | 8.84e-05 ± 1.7e-05 | 0.000232 ± 5.2e-05 | 8.85e-05 ± 1.7e-05 | 
61 | C10U G32C C68A | < 1e-05 |  |  |  | 
62 | G60C C67U | < 1e-05 |  |  | < 1e-05 | 
63 | C34U U65C | < 1e-05 | < 1e-05 | < 1e-05 | < 1e-05 | < 1e-05
64 | U56C C68U | < 1e-05 | < 1e-05 |  |  | 
65 | A6C G29U C34U U47G C58G C70G | 0.000135 ± 5e-05 | 0.000686 ± 0.0002 |  | 0.000144 ± 3.9e-05 | 
66 | C10U U55G | < 1e-05 |  |  | 2.49e-05 ± 9.6e-06 | < 1e-05
67 | C8U G43A | < 1e-05 |  |  |  | < 1e-05
68 | G37C U54A U55C G63C U69G | < 1e-05 |  |  | < 1e-05 | 
69 | A14G C34A G38U | < 1e-05 |  |  |  | 
70 | G7U G35U | < 1e-05 |  | < 1e-05 | < 1e-05 | < 1e-05
71 | C16A G29C G37U | < 1e-05 |  | < 1e-05 |  | 
72 | A15C G37U G40C U55G U65C U69C | < 1e-05 |  |  |  | 
73 | C8A U45A A53U | < 1e-05 |  |  |  | 
74 | G29C C58U C71U | < 1e-05 |  |  | 5.59e-05 ± 1.7e-05 | 
75 | C11A A14U G66U C67A | < 1e-05 |  |  |  | 

Row | Variant | self-cleavage kobs at 40 uM GlcN6P [1] [s⁻¹] | self-cleavage kobs at 640 uM GlcN6P [2] [s⁻¹] | self-cleavage kobs at 2500 uM GlcN6P [3] [s⁻¹] | self-cleavage kobs at 10000 uM GlcN6P [4] [s⁻¹] | self-cleavage kobs at 160 uM GlcN6P [5] [s⁻¹]
76 | G41U G43A | < 1e-05 | < 1e-05 | < 1e-05 | < 1e-05 | 
77 | G44C C61U | < 1e-05 | < 1e-05 | < 1e-05 | < 1e-05 | < 1e-05
78 | A6C G35U A36C | < 1e-05 |  | < 1e-05 | < 1e-05 | 
79 | C8A A12U A33C A39G A53C C68A | < 1e-05 |  |  |  | 
80 | G7U G60U | < 1e-05 | < 1e-05 |  | < 1e-05 | < 1e-05
81 | A33G G40U U49C | < 1e-05 |  |  | < 1e-05 | 
82 | C8U A14G | < 1e-05 |  | < 1e-05 |  | < 1e-05
83 | G7U A33U A64G C70G | < 1e-05 |  |  |  | 
84 | G29U C71A | 5.78e-05 ± 1.4e-05 | 0.000172 ± 4.8e-05 | 0.000288 ± 0.00011 | 0.00103 ± 0.00015 | 
85 | G60U G62A C70U | < 1e-05 |  |  | < 1e-05 | 
86 | G29A A39G | 0.000267 ± 3.9e-05 | 0.00148 ± 0.00051 | 0.00297 ± 0.00077 | 0.0102 ± 0.0018 | 
87 | A14U G38A U45G G63C | < 1e-05 |  |  |  | 
88 | G9U U49G | < 1e-05 | < 1e-05 |  | < 1e-05 | < 1e-05
89 | C16U G59C | < 1e-05 | < 1e-05 |  | < 1e-05 | 
90 | A6U G37C G41C U47C A48U G59U | < 1e-05 |  |  | < 1e-05 | 
91 | C11U G37U G43U G63U | < 1e-05 |  | < 1e-05 | < 1e-05 | 
92 | U30C G37C C58A G60U | < 1e-05 |  |  | < 1e-05 | 
93 | A6C A12U G29A C68G | < 1e-05 | < 1e-05 | < 1e-05 |  | 
94 | U47A C70U | 0.000803 ± 0.00012 | 0.0018 ± 0.00029 | 0.00221 ± 0.00048 | 0.00993 ± 0.0023 | 0.00118 ± 0.00023
95 | G44C U45G C58G | < 1e-05 |  |  |  | 
96 | C50G C61A A64U | 9.82e-05 ± 1.8e-05 |  |  | 0.000113 ± 1.8e-05 | 
97 | C11A A14U A36U U46A | < 1e-05 |  | < 1e-05 | < 1e-05 | 
